IC50, tumor uptake and tumor uptake in mice with induced PD-L1-positive 4T1 tumors, 1, 2 and 3 h after injection (% ID/g) data for three substances are collected here from publication PMC12298754.

For assay [1], the target named is PD-L1 protein on 4T1 cells (programmed cell death ligand-1) (mouse (endogenous in 4T1)) (UniProt Q9EP73). The assay can be described thus: radioligand binding; competition on 4T1 cells adhered to 96-well plates, 37 °C, 1 h; [18F]AlF-NOTA-iPD-L1 constant at 1 ng/20 kBq; unlabeled peptides 10 to 0.00001 mM; washed with pH 7.4 buffer (0.1% BSA, 25 mM Tris-HCl, 1 mM CaCl2, 120 mM NaCl); corrected for non-specific binding with …; n = 3.
UniProt Q9EP73, sequence (Q9EP73 19-290): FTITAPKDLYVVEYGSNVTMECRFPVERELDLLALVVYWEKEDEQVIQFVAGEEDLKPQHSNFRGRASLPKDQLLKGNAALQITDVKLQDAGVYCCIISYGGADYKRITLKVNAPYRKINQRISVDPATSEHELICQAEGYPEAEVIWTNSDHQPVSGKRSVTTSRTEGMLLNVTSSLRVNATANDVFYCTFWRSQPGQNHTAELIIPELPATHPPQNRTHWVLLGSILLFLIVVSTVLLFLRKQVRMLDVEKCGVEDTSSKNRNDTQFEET

The target is the same in assay [2].

Turning to WL12 (peptide), the IC50 (commonly the midpoint of a concentration-inhibition curve) in assay [1] was determined as 6.08 nM.
On to [18F]AlF-NOTA-iPD-L1 (peptide), for which, in assay [2], the tumor uptake at 1 h in mice with 4T1 tumors that received a blocking dose of cold iPD-L1 30 min before (% ID/g) worked out at 1.81 % ID/g; the tumor uptake in mice with induced PD-L1-positive 4T1 tumors, 1, 2 and 3 h after injection (% ID/g) was determined as 6.54 % ID/g.
AlCl-NOTA-iPD-L1 (peptide) registered an IC50 in assay [1] of 9.27 nM.
